Assay results as given in US20040063116.

Experiments:
[1] = target: T1, RNase A zymogen with 104/105 termini, P61823
T1 chain: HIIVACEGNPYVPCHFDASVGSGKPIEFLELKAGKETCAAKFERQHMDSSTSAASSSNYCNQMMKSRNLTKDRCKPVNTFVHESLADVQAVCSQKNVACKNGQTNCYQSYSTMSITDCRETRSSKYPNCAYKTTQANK

[2] = target: T2, RNase A zymogen with 113/114 termini, P61823
T2 chain: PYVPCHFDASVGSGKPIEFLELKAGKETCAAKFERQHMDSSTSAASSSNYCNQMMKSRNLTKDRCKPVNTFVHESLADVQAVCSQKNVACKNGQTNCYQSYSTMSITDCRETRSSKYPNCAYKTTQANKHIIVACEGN

[3] = target: RNase A zymogen with 20/21 termini, P61823
Sequence of RNase A zymogen with 20/21 termini, P61823 (P61823 whole entry, looked up): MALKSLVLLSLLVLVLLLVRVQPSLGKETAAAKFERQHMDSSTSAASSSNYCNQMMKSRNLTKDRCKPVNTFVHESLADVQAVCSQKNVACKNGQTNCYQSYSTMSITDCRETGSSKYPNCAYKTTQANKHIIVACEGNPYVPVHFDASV

[4] = target: T3, RNase A zymogen with 67/71 termini, P61823
T3 chain: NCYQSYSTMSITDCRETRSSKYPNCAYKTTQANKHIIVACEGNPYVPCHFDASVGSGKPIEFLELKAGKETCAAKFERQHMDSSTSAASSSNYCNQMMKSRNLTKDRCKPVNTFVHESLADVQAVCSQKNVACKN

[5] = target: T4, RNase A zymogen with 88/89 termini, P61823
T4 chain: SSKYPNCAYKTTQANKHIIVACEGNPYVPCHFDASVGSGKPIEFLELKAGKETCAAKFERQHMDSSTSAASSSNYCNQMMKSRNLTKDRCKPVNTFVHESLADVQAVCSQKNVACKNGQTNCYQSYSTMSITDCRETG

B1: plasmepsin II (protein)
chain: MDITVREHDFKHGFIKSNSTFDGLNIDNSKNKKKIQKGFQILYVLLFCSVMCGLFYYVYENVWLQRDNEMNEILKNSEHLTIGFKVENAHDRILKTIKTHKLKNYIKESVNFLNSGLTKTNYLGSSNDNIELVDFQNIMFYGDAEVGDNQQPFTFILDTGSANLWVPSVKCTTAGCLTKHLYDSSKSRTYEKDGTKVEMNYVSGTVSGFFSKDLVTVGNLSLPYKFIEVIDTNGFEPTYTASTFDGILGLGWKDLSIGSVDPIVVELKNQNKIENALFTFYLPVHDKHTGFLTIGGIEERFYEGPLTYEKLNHDLYWQITLDAHVGNIMLEKANCIVDSGTSAITVPTDFLNKMLQNLDVIKVPFLPFYVTLCNNSKLPTFEFTSENGKYTLEPEYYLQHIEDVGPGLCMLNIIGLDFPVPTFILGDPFMRKYFTVFDYDNHSVGIALAKKNL
- proteolytic cleavage of the zymogen (SDS-PAGE) and gain of ribonucleolytic activity [1]: The proteolytic cleavage by plasmepsin II was complete within 10 minutes at an approximately 1:100 molar ratio of protease to zymogen
- proteolytic cleavage of the zymogen (SDS-PAGE) and gain of ribonucleolytic activity [2]: The proteolytic cleavage by plasmepsin II was complete within 10 minutes at an approximately 1:100 molar ratio of protease to zymogen
- proteolytic cleavage of the zymogen (SDS-PAGE) and gain of ribonucleolytic activity [3]: The proteolytic cleavage by plasmepsin II was complete within 10 minutes at an approximately 1:100 molar ratio of protease to zymogen
- proteolytic cleavage of the zymogen (SDS-PAGE) and gain of ribonucleolytic activity [4]: The proteolytic cleavage by plasmepsin II was complete within 10 minutes at an approximately 1:100 molar ratio of protease to zymogen
- proteolytic cleavage of the zymogen (SDS-PAGE) and gain of ribonucleolytic activity [5]: The proteolytic cleavage by plasmepsin II was complete within 10 minutes at an approximately 1:100 molar ratio of protease to zymogen
